Source: article PMC6509359 (Molecular Cell, 2019)
“And” between values parts separate entries of the source, which are not always exact repeats. Equal values may be shown once.

What was measured:
[1] = biological target: the molecule itself; assay: SAXS; SEC-SAXS, 45 μL at 3-12 mg/mL, Shodex KW-403, buffer E (20 mM Tris pH 8.0, 100 mM NaCl, 5 mM DTT); compared with curves calculated from the crystal structures
[2] = biological target: the molecule itself; assay: not stated; oligomeric state of the purified deletion construct, Figure S4F (legend not shown)
[3] = biological target: the molecule itself; assay: cell-based or functional assay
[4] = biological target: the molecule itself; assay: SEC-MALS; five-fold dilution series (1 mg/mL, 0.2 mg/mL, 0.04 mg/mL sample concentration)
[5] = biological target: the molecule itself; assay: native gel or EMSA; native PAGE of lysate of untreated HEK293 cells, immunoblotting for the endogenous protein; recombinant USP25 tetramer and dimer fractions as size standard

B1: Human USP28 (149-703) (domain or fragment, UniProt Q96RU2 149-703, looked up)
chain: PNPNDWRRVDGWPVGLKNVGNTCWFSAVIQSLFQLPEFRRLVLSYSLPQNVLENCRSHTEKRNIMFMQELQYLFALMMGSNRKFVDPSAALDLLKGAFRSSEEQQQDVSEFTHKLLDWLEDAFQLAVNVNSPRNKSENPMVQLFYGTFLTEGVREGKPFCNNETFGQYPLQVNGYRNLDECLEGAMVEGDVELLPSDHSVKYGQERWFTKLPPVLTFELSRFEFNQSLGQPEKIHNKLEFPQIIYMDRYMYRSKELIRNKRECIRKLKEEIKILQQKLERYVKYGSGPARFPLPDMLKYVIEFASTKPASESCPPESDTHMTLPLSSVHCSVSDQTSKESTSTESSSQDVESTFSSPEDSLPKSKPLTSSRSSMEMPSQPAPRTVTDEEINFVKTCLQRWRSEIEQDIQDLKTCIASTTQTIEQMYCDPLLRQVPYRLHAVLVHEGQANAGHYWAYIYNQPRQSWLKYNDISVTESSWEEVERDSYGGLRNVSAYCLMYINDKLPYFNAEAAPTESDQMSEVEALSVELKHYIQEDNWRFEQEVEEWEEEQSCKI
notes: also called USP28 catalytic domain; source: E. coli Rosetta2(DE3)pLacI, purified (HisTrap, 3C protease, Resource Q, size exclusion)
stoichiometry N [1]: 2

B2: Human USP25 (157-Δ(465-535)-714) (domain or fragment)
chain: NPYDRKRQDKAPVGLKNVGNTCWFSAVIQSLFNLLEFRRLVLNYKPPSNAQDLPRNQKEHRNLPFMRELRYLFALLVGTKRKYVDPSRAVEILKDAFKSNDSQQQDVSEFTHKLLDWLEDAFQMKAEEETDEEKPKNPMVELFYGRFLAVGVLEGKKFENTEMFGQYPLQVNGFKDLHECLEAAMIEGEIESLHSENSGKSGQEHWFTELPPVLTFELSRFEFNQALGRPEKIHNKLEFPQVLYLDRYMHRNREITRIKREEIKRLKDYLTVLQQRLERYLSYGSGPKRFPLVDVLQYALEFASSKPVGSGSGSAPRHITEEELSVLESCLHRWRTEIENDTRDLQESISRIHRTIELMYSDKSMIQVPYRLHAVLVHEGQANAGHYWAYIFDHRESRWMKYNDIAVTKSSWEELVRDSFGGYRNASAYCLMYINDKAQFLIQEEFNKETGQPLVGIETLPPDLRDFVEEDNQRFEKELEEWDAQLAQKALQE
notes: USP25, human, residues 536-714; source: E. coli Rosetta2(DE3)pLacI, purified (HisTrap, 3C protease, Resource Q, size exclusion)
stoichiometry N [2]: 2
Ub-KG-TAMRA cleavage activity against the tetrameric wild-type USP25 (157-714) [3]: 6 fold

B3: Human USP25 (1-714) (domain or fragment, UniProt Q9UHP3 1-714, looked up)
chain: MTVEQNVLQQSAAQKHQQTFLNQLREITGINDTQILQQALKDSNGNLELAVAFLTAKNAKTPQQEETTYYQTALPGNDRYISVGSQADTNVIDLTGDDKDDLQRAIALSLAESNRAFRETGITDEEQAISRVLEASIAENKACLKRTPTEVWRDSRNPYDRKRQDKAPVGLKNVGNTCWFSAVIQSLFNLLEFRRLVLNYKPPSNAQDLPRNQKEHRNLPFMRELRYLFALLVGTKRKYVDPSRAVEILKDAFKSNDSQQQDVSEFTHKLLDWLEDAFQMKAEEETDEEKPKNPMVELFYGRFLAVGVLEGKKFENTEMFGQYPLQVNGFKDLHECLEAAMIEGEIESLHSENSGKSGQEHWFTELPPVLTFELSRFEFNQALGRPEKIHNKLEFPQVLYLDRYMHRNREITRIKREEIKRLKDYLTVLQQRLERYLSYGSGPKRFPLVDVLQYALEFASSKPVCTSPVDDIDASSPPSGSIPSQTLPSTTEQQGALSSELPSTSPSSVAAISSRSVIHKPFTQSRIPPDLPMHPAPRHITEEELSVLESCLHRWRTEIENDTRDLQESISRIHRTIELMYSDKSMIQVPYRLHAVLVHEGQANAGHYWAYIFDHRESRWMKYNDIAVTKSSWEELVRDSFGGYRNASAYCLMYINDKAQFLIQEEFNKETGQPLVGIETLPPDLRDFVEEDNQRFEKELEEWDAQLAQKALQE
notes: USP25, human, residues 1-714; tetrameric and dimeric species side by side; source: E. coli Rosetta2(DE3)pLacI, purified (HisTrap, 3C protease, Resource Q, size exclusion)
stoichiometry N [4]: 4 and 2

B4: endogenous USP28 (enzyme, human (endogenous in HEK293), UniProt Q96RU2 1-1077, looked up)
chain: MTAELQQDDAAGAADGHGSSCQMLLNQLREITGIQDPSFLHEALKASNGDITQAVSLLTDERVKEPSQDTVATEPSEVEGSAANKEVLAKVIDLTHDNKDDLQAAIALSLLESPKIQADGRDLNRMHEATSAETKRSKRKRCEVWGENPNPNDWRRVDGWPVGLKNVGNTCWFSAVIQSLFQLPEFRRLVLSYSLPQNVLENCRSHTEKRNIMFMQELQYLFALMMGSNRKFVDPSAALDLLKGAFRSSEEQQQDVSEFTHKLLDWLEDAFQLAVNVNSPRNKSENPMVQLFYGTFLTEGVREGKPFCNNETFGQYPLQVNGYRNLDECLEGAMVEGDVELLPSDHSVKYGQERWFTKLPPVLTFELSRFEFNQSLGQPEKIHNKLEFPQIIYMDRYMYRSKELIRNKRECIRKLKEEIKILQQKLERYVKYGSGPARFPLPDMLKYVIEFASTKPASESCPPESDTHMTLPLSSVHCSVSDQTSKESTSTESSSQDVESTFSSPEDSLPKSKPLTSSRSSMEMPSQPAPRTVTDEEINFVKTCLQRWRSEIEQDIQDLKTCIASTTQTIEQMYCDPLLRQVPYRLHAVLVHEGQANAGHYWAYIYNQPRQSWLKYNDISVTESSWEEVERDSYGGLRNVSAYCLMYINDKLPYFNAEAAPTESDQMSEVEALSVELKHYIQEDNWRFEQEVEEWEEEQSCKIPQMESSTNSSSQDYSTSQEPSVASSHGVRCLSSEHAVIVKEQTAQAIANTARAYEKSGVEAALSEVMLSPAMQGVILAIAKARQTFDRDGSEAGLIKAFHEEYSRLYQLAKETPTSHSDPRLQHVLVYFFQNEAPKRVVERTLLEQFADKNLSYDERSISIMKVAQAKLKEIGPDDMNMEEYKKWHEDYSLFRKVSVYLLTGLELYQKGKYQEALSYLVYAYQSNAALLMKGPRRGVKESVIALYRRKCLLELNAKAASLFETNDDHSVTEGINVMNELIIPCIHLIINNDISKDDLDAIEVMRNHWCSYLGQDIAENLQLCLGEFLPRLLDPSAEIIVLKEPPTIRPNSPYDLCSRFAAVMESIQGVSTVTVK
notes: USP28, endogenous in untreated HEK293 cells; source: endogenous, HEK293 lysate
stoichiometry N [5]: 2

B5: Human USP25 (157-1055) (domain or fragment, UniProt Q9UHP3 157-1055, looked up)
chain: NPYDRKRQDKAPVGLKNVGNTCWFSAVIQSLFNLLEFRRLVLNYKPPSNAQDLPRNQKEHRNLPFMRELRYLFALLVGTKRKYVDPSRAVEILKDAFKSNDSQQQDVSEFTHKLLDWLEDAFQMKAEEETDEEKPKNPMVELFYGRFLAVGVLEGKKFENTEMFGQYPLQVNGFKDLHECLEAAMIEGEIESLHSENSGKSGQEHWFTELPPVLTFELSRFEFNQALGRPEKIHNKLEFPQVLYLDRYMHRNREITRIKREEIKRLKDYLTVLQQRLERYLSYGSGPKRFPLVDVLQYALEFASSKPVCTSPVDDIDASSPPSGSIPSQTLPSTTEQQGALSSELPSTSPSSVAAISSRSVIHKPFTQSRIPPDLPMHPAPRHITEEELSVLESCLHRWRTEIENDTRDLQESISRIHRTIELMYSDKSMIQVPYRLHAVLVHEGQANAGHYWAYIFDHRESRWMKYNDIAVTKSSWEELVRDSFGGYRNASAYCLMYINDKAQFLIQEEFNKETGQPLVGIETLPPDLRDFVEEDNQRFEKELEEWDAQLAQKALQEKLLASQKLRESETSVTTAQAAGDPEYLEQPSRSDFSKHLKEETIQIITKASHEHEDKSPETVLQSAIKLEYARLVKLAQEDTPPETDYRLHHVVVYFIQNQAPKKIIEKTLLEQFGDRNLSFDERCHNIMKVAQAKLEMIKPEEVNLEEYEEWHQDYRKFRETTMYLIIGLENFQRESYIDSLLFLICAYQNNKELLSKGLYRGHDEELISHYRRECLLKLNEQAAELFESGEDREVNNGLIIMNEFIVPFLPLLLVDEMEEKDILAVEDMRNRWCSYLGQEMEPHLQEKLTDFLPKLLDCSMEIKSFHEPPKLPSYSTHELCERFARIMLSLSRTPADGR
notes: source: E. coli Rosetta2(DE3)pLacI, purified (HisTrap, 3C protease, Resource Q, size exclusion)
stoichiometry N [4]: 4
